In US6770631 (ADPROTECH, dated 2004):

What was measured:
[1] = biological target: T1, complement receptor-2 (CR2) on the surface of Raji cells (UniProt P20023 21-1033, limits assumed); experiment: competitive binding on Raji cells against 1 nM 125I-HEL-C3d, 1 h at 4 C, cell-pellet radioactivity
T1 construct: whole, on cells; also called CD21; complement receptor type 2
T1 sequence (looked up): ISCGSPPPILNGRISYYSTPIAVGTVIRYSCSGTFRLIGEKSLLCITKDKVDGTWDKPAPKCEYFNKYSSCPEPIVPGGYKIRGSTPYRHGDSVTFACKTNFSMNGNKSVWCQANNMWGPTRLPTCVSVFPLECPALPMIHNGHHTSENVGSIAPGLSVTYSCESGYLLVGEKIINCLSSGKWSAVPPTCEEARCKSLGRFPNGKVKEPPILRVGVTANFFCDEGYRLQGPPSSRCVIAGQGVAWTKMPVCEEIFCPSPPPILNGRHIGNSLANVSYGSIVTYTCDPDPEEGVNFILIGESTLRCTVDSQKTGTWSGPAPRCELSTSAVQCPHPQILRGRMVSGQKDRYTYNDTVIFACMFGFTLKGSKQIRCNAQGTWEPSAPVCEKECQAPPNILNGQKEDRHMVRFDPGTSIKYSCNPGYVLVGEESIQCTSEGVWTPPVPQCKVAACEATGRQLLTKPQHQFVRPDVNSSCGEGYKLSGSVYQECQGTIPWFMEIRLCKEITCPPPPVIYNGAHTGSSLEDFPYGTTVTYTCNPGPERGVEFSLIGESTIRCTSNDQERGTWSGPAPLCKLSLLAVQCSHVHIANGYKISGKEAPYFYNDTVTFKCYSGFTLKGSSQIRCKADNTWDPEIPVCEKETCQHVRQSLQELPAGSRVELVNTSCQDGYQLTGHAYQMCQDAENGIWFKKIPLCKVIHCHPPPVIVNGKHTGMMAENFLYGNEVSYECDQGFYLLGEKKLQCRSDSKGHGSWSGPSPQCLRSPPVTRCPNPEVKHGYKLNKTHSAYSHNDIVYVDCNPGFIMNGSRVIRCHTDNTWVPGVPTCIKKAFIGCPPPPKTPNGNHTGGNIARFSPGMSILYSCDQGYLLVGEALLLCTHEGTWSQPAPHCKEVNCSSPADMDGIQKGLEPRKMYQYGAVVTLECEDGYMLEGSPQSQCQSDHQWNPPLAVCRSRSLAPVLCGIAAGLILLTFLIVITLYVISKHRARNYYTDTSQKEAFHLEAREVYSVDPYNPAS
Experimental: The cells are then centrifuged through a dibutyl-diiso-octyl-phthalate cushion, and the amount of radioactivity associated with the pellet determined.
The binding was performed as described in General Methods Section (xvii) (a).

co-ligated CR2.IgG1 = biological target: T2, co-ligated CR2.IgG1; experiment: competitive ELISA: plate-bound C3d, 125 pM CR2.IgG1, soluble C3d titrated, HRP anti-mouse IgG1 detection
T2 construct: also called CR2; IgGl
Experimental: C3d is used to coat 96-well microtitre plates at 5 µg/ml in O. 1M NaHCO_3 by incubating overnight at 4° C. The plates are then blocked in 1% BSA 0.1% Tween-20 in PBS for 1 h at room temperature subsequently they are incubated with either 25 µl/well of C3d or from the C3d containing molecule under test in a dose response manner. To the wells is added 25 µl/well of a sub-saturating concentration of co-ligated CR2. […] The plates are then washed three times with PBS containing 0.1% (v/v) Tween-20. The amount of CR2 bound to the immobilised C3d is detected using a 1:3000 dilution of HRP-labeled goat anti-mouse-IgGl-antibody in PBS containing 0.1% (v/v)Tween-20 and incubated for 1 h at room temperature the wells were then washed as described above. The presence of HRP-antibody is detected using the TMB Peroxidase EIA Substrate Kit according to the manufacturer's instructions (Bio-Rad, UK).
The ELISA was performed as described in General Methods Section (xvii) (b). The monomer gave a $I50$ of 2 µM for the baculovirus/Sf9 material. A similar figure was obtained for the COS cell produced C3d.

B1: C3d expressed in COS cells (ligand)
chain: not shown
notes: domain: C3d; Comparator material; also called COS cell produced C3d
IC50 [1]: 2.5 µM

B2: C3d monomer produced in baculovirus/Sf9 cells (murine C3d with C-terminal Glu-Glu-Phe tag) (ligand)
chain: not shown
notes: The end residue 330 was counted from the printed appendix (33 rows of 10 residues); Measured mass 34279 Da; also called baculovirus/Sf9 C3d; C3d1
IC50 [1]: 2.5 µM | IC50 (co-ligated CR2.IgG1): 2 µM
